Measurements taken from publication PMC5534430, “Crystal structure of a Pseudomonas malonate decarboxylase holoenzyme hetero-tetramer” (Nature Communications, 2017).
Values belong to the molecule of their own block, whether it stands above or below them.

Legend:
[1] = target: T1, MDC hetero-tetramer (MdcA active site) (Pseudomonas aeruginosa, UniProt Q9I6T0); experiment: X-ray crystal structure, […] Å; type: binding; settings: malonate from the crystallization solution; MdcA active site between domains AN and AC; apo MdcC
T1 construct: hybrid hetero-tetramer: full-length MdcA (1-554), MdcD, MdcE of P. aeruginosa and full-length MdcC of P. fluorescens without prosthetic group; only MdcE N-terminal His-tagged; E. coli Rosetta; 140 kD, 1:1:1:1; with Malonate decarboxylase acyl carrier protein (malonate decarboxylase subunit delta), Pseudomonas fluorescens; Malonate decarboxylase subunit beta; Malonate decarboxylase subunit gamma
T1 sequence (Q4K4F7 whole entry, one chain of several, further chain, the tested form may be a part): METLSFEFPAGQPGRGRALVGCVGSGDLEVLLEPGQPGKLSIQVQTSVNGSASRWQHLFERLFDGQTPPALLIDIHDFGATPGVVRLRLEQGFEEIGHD
T1 sequence (Q9I6T0 entry or part of it, one chain of several): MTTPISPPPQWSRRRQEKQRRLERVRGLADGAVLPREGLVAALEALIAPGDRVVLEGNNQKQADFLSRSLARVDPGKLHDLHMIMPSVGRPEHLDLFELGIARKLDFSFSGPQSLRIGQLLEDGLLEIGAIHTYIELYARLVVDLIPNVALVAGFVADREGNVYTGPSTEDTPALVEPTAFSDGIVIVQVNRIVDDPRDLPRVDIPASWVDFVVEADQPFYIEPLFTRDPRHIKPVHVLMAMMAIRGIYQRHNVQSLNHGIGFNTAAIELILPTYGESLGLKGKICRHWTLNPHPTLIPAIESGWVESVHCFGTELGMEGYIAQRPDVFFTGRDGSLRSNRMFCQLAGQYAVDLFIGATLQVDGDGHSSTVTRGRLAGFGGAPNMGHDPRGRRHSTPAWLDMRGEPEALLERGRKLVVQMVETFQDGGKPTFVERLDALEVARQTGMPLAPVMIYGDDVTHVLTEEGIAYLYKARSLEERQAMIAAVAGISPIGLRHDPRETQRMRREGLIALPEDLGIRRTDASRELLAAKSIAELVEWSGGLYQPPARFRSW

[2] = target: MdcE subunit of malonate decarboxylase (P. aeruginosa), N-terminal His tag (P. aeruginosa); experiment: SEC; gel filtration of the co-expressed, purified MdcD–MdcE complex
purified protein = substrate: CC(C)(COP(=O)(O)OP(=O)(O)OC[C@H]1O[C@@H](n2cnc3c(N)ncnc32)[C@H](O)[C@@H]1OP(=O)(O)O)[C@@H](O)C(=O)NCCC(=O)NCCSC(=O)CC(=O)O; experiment: purified protein; type: biochemical, Pseudomonas aeruginosa; settings: decarboxylation, 2.5 μM enzyme, 20 mM Tris pH 8.0, Hill equation fit, Hill coefficient 1.68 ± 0.13

Molecule: O=C(O)CC(=O)O [malonate]
- X-ray crystal structure, 2.2 Å [1]: A malonate molecule from the crystallization solution is bound in the active site

- stoichiometry N [2]: 1
B1: MdcD subunit of malonate decarboxylase (P. aeruginosa) (natural protein)
chain: MTDVARLLALRSFTELGARQRARALLDAGSFRELLDPFAGVQSPWLERQGIVPQADDGVVVARGLLDGQPAVLAAIEGAFQGGSLGEVSGAKIAGALELAAEDNRNGVPTRALLLLETGGVRLQEANLGLAAIAEIQAAIVDLQRYQPVVAVIAGPVGCFGGMSIAAGLCSYVLVTREARLGLNGPQVIEQEAGIAEYDSRDRPFIWSLTGGEQRFASGLADAYLADDLDEVRTSVLAYFAKGLPARPRCRRAEDYLRRLGDLDTAEQPDAAGVRRLYQGLGQGDAT

B2: MdcD–MdcE complex (Pseudomonas aeruginosa PAO1) (protein)
chain 1: MTDVARLLALRSFTELGARQRARALLDAGSFRELLDPFAGVQSPWLERQGIVPQADDGVVVARGLLDGQPAVLAAIEGAFQGGSLGEVSGAKIAGALELAAEDNRNGVPTRALLLLETGGVRLQEANLGLAAIAEIQAAIVDLQRYQPVVAVIAGPVGCFGGMSIAAGLCSYVLVTREARLGLNGPQVIEQEAGIAEYDSRDRPFIWSLTGGEQRFASGLADAYLADDLDEVRTSVLAYFAKGLPARPRCRRAEDYLRRLGDLDTAEQPDAAGVRRLYQGLGQGDAT
chain 2: MSQPFASRGLAWFQALAGSLAPRPGDPASLRVADAELDGYPVRFLAVVPDPDNPFPRARQGEVGLLEGWGLAAAVDEALEADREAPRKRALLAIVDVPSQAYGRREEALGIHQALAGAVDAYARARLAGHPLIGLLVGKAMSGAFLAHGYQANRLIALHDPGVMVHAMGKAAAARITLRSVEELEALAAKVPPMAYDIDSYASLGLLWRTLPVETVEVPSTADLVRVRTCLGEALADILGGPRDLGGRLGAANREASARVRRLLREQW
notes: full-length; N-terminal His-tagged MdcE (28 kD), untagged MdcD (30 kD); co-expressed in E. coli BL21Star (DE3) from pCDFDuet; 1:1 hetero-dimer in solution
- K0.5 (purified protein): 100 ± 5 µM
- kcat (purified protein): 2.3 ± 0.1 s⁻¹
